From publication PMC10057847, “Precision engineering of biological function with large-scale measurements and machine learning” (PLOS ONE, 2023)
Residue numbers refer to the chain shown, from its start. Numbers in names are those of the source. Where “and” joins values, the source holds several entries; their conditions need not be identical. Equal entries are not always repeated.

B1: pVER-IPTG-001: LacI variant: Q55H D130E V192A T258I D267N Y273H N333I (protein, UniProt P03023 1-360, looked up, variant Q55H D130E V192A T258I D267N Y273H N333I)
Lactose operon repressor: MKPVTLYDVAEYAGVSYQTVSRVVNQASHVSAKTREKVEAAMAELNYIPNRVAQHLAGKQSLLIGVATSSLALHAPSQIVAAIKSRADQLGASVVVSMVERSGVEACKAAVHNLLAQRVSGLIINYPLDEQDAIAVEAACTNVPALFLDVSDQTPINSIIFSHEDGTRLGVEHLVALGHQQIALLAGPLSSASARLRLAGWHKYLTRNQIQPIAEREGDWSAMSGFQQTMQMLNEGIVPTAMLVANDQMALGAMRAIIESGLRVGANISVVGHDDTEDSSCYIPPLTTIKQDFRLLGQTSVDRLLQLSQGQAVKGNQLLPVSLVKRKTTLAPITQTASPRALADSLMQLARQVSRLESGQ
B2: pVER-IPTG-084: LacI variant: A92I S269T N333H L346* (protein, UniProt P03023 1-360, looked up, variant A92I S269T N333H L346*)
Lactose operon repressor: MKPVTLYDVAEYAGVSYQTVSRVVNQASHVSAKTREKVEAAMAELNYIPNRVAQQLAGKQSLLIGVATSSLALHAPSQIVAAIKSRADQLGISVVVSMVERSGVEACKAAVHNLLAQRVSGLIINYPLDDQDAIAVEAACTNVPALFLDVSDQTPINSIIFSHEDGTRLGVEHLVALGHQQIALLAGPLSSVSARLRLAGWHKYLTRNQIQPIAEREGDWSAMSGFQQTMQMLNEGIVPTAMLVANDQMALGAMRAITESGLRVGADITVVGYDDTEDSSCYIPPLTTIKQDFRLLGQTSVDRLLQLSQGQAVKGNQLLPVSLVKRKTTLAPHTQTASPRALADSMQLARQVSRLESGQ
B3: pVER-IPTG-004(V136E): LacI variant: A87P V136E V301M E357G (protein, UniProt P03023 1-360, looked up, variant A87P V136E V301M E357G)
Lactose operon repressor: MKPVTLYDVAEYAGVSYQTVSRVVNQASHVSAKTREKVEAAMAELNYIPNRVAQQLAGKQSLLIGVATSSLALHAPSQIVAAIKSRPDQLGASVVVSMVERSGVEACKAAVHNLLAQRVSGLIINYPLDDQDAIAEEAACTNVPALFLDVSDQTPINSIIFSHEDGTRLGVEHLVALGHQQIALLAGPLSSVSARLRLAGWHKYLTRNQIQPIAEREGDWSAMSGFQQTMQMLNEGIVPTAMLVANDQMALGAMRAITESGLRVGADISVVGYDDTEDSSCYIPPLTTIKQDFRLLGQTSMDRLLQLSQGQAVKGNQLLPVSLVKRKTTLAPNTQTASPRALADSLMQLARQVSRLGSGQ
B4: pVER-IPTG-144: LacI variant: V15I F161I A266T K290R M347I (protein, UniProt P03023 1-360, looked up, variant V15I F161I A266T K290R M347I)
Lactose operon repressor: B3 Lactose operon repressor with V15I, P87A, E136V, F161I, A266T, K290R, M301V, M347I, G357E
B5: pVER-IPTG-002(V136E): LacI variant: V96E V136E T154I S158R V238D M254I V264I (protein, UniProt P03023 1-360, looked up, variant V96E V136E T154I S158R V238D M254I V264I)
Lactose operon repressor: B3 Lactose operon repressor with P87A, V96E, T154I, S158R, V238D, M254I, V264I, M301V, G357E
B6: pVER-IPTG-WT(S70R/V271M): LacI variant: S70R V271M (protein, UniProt P03023 1-360, looked up, variant S70R V271M)
Lactose operon repressor: B3 Lactose operon repressor with S70R, P87A, E136V, V271M, M301V, G357E
B7: pVER-IPTG-206: LacI variant: V95M A337T (protein, UniProt P03023 1-360, looked up, variant V95M A337T)
Lactose operon repressor: B3 Lactose operon repressor with P87A, V95M, E136V, M301V, A337T, G357E
B8: pVER-IPTG-WT(F161V): LacI variant: F161V (protein, UniProt P03023 1-360, looked up, variant F161V)
Lactose operon repressor: B3 Lactose operon repressor with P87A, E136V, F161V, M301V, G357E
B9: pVER-IPTG-003: LacI variant: V52M H74Y V119I G200V R207H L262M K290R Q306H A337V Q352* (protein, UniProt P03023 1-360, looked up, variant V52M H74Y V119I G200V R207H L262M K290R Q306H A337V Q352*)
Lactose operon repressor: MKPVTLYDVAEYAGVSYQTVSRVVNQASHVSAKTREKVEAAMAELNYIPNRMAQQLAGKQSLLIGVATSSLALYAPSQIVAAIKSRADQLGASVVVSMVERSGVEACKAAVHNLLAQRISGLIINYPLDDQDAIAVEAACTNVPALFLDVSDQTPINSIIFSHEDGTRLGVEHLVALGHQQIALLAGPLSSVSARLRLAVWHKYLTHNQIQPIAEREGDWSAMSGFQQTMQMLNEGIVPTAMLVANDQMALGAMRAITESGMRVGADISVVGYDDTEDSSCYIPPLTTIRQDFRLLGQTSVDRLLHLSQGQAVKGNQLLPVSLVKRKTTLAPNTQTVSPRALADSLMQLARVSRLESGQ
B10: pVER-IPTG-008: LacI variant: S61L I237T T258S A266T I289F R351* (protein, UniProt P03023 1-360, looked up, variant S61L I237T T258S A266T I289F R351*)
Lactose operon repressor: MKPVTLYDVAEYAGVSYQTVSRVVNQASHVSAKTREKVEAAMAELNYIPNRVAQQLAGKQLLLIGVATSSLALHAPSQIVAAIKSRADQLGASVVVSMVERSGVEACKAAVHNLLAQRVSGLIINYPLDDQDAIAVEAACTNVPALFLDVSDQTPINSIIFSHEDGTRLGVEHLVALGHQQIALLAGPLSSVSARLRLAGWHKYLTRNQIQPIAEREGDWSAMSGFQQTMQMLNEGTVPTAMLVANDQMALGAMRAISESGLRVGTDISVVGYDDTEDSSCYIPPLTTFKQDFRLLGQTSVDRLLQLSQGQAVKGNQLLPVSLVKRKTTLAPNTQTASPRALADSLMQLAQVSRLESGQ
B11: pVER-IPTG-081: LacI variant: P285S V301M S308P M347V (protein, UniProt P03023 1-360, looked up, variant P285S V301M S308P M347V)
Lactose operon repressor: B3 Lactose operon repressor with P87A, E136V, P285S, S308P, M347V, G357E
B12: pVER-IPTG-138: LacI variant: S28G T34M Q60R A81S E100K L148V S221N V271L (protein, UniProt P03023 1-360, looked up, variant S28G T34M Q60R A81S E100K L148V S221N V271L)
Lactose operon repressor: MKPVTLYDVAEYAGVSYQTVSRVVNQAGHVSAKMREKVEAAMAELNYIPNRVAQQLAGKRSLLIGVATSSLALHAPSQIVSAIKSRADQLGASVVVSMVKRSGVEACKAAVHNLLAQRVSGLIINYPLDDQDAIAVEAACTNVPALFVDVSDQTPINSIIFSHEDGTRLGVEHLVALGHQQIALLAGPLSSVSARLRLAGWHKYLTRNQIQPIAEREGDWNAMSGFQQTMQMLNEGIVPTAMLVANDQMALGAMRAITESGLRVGADISVLGYDDTEDSSCYIPPLTTIKQDFRLLGQTSVDRLLQLSQGQAVKGNQLLPVSLVKRKTTLAPNTQTASPRALADSLMQLARQVSRLESGQ
B13: pVER-IPTG-WT(Q291L): LacI variant: Q291L (protein, UniProt P03023 1-360, looked up, variant Q291L)
Lactose operon repressor: B3 Lactose operon repressor with P87A, E136V, Q291L, M301V, G357E
B14: pVER-IPTG-WT(I83M): LacI variant: I83M (protein, UniProt P03023 1-360, looked up, variant I83M)
Lactose operon repressor: B3 Lactose operon repressor with I83M, P87A, E136V, M301V, G357E
B15: pVER-IPTG-WT(G200C): LacI variant: G200C (protein, UniProt P03023 1-360, looked up, variant G200C)
Lactose operon repressor: B3 Lactose operon repressor with P87A, E136V, G200C, M301V, G357E

Tested on: eYFP under the control of the lactose operator (lacO)
Test: in vivo dose-response curves of LacI variants to IPTG measured with flow cytometry (eYFP output), fit to the Hill equation
Type: cell-based, E. coli
Conditions: IPTG 0.0 μmol/L, clone A
Description: Dose-response curves were measured with flow cytometry using E. coli MG1655Δlac transformed with variants of the pVER plasmid, described previously. The plasmid contained different variants of the lacI coding DNA sequence (CDS), as described in the text, and an expression cassette with enhanced yellow fluorescent protein (eYFP) under the control of the lactose operator (lacO). The lacI CDS was verified with Sanger sequencing for each variant.
All cultures were grown in a rich M9 media (3 g/L KH2PO4, 6.78 g/L Na2HPO4, 0.5 g/L NaCl, 1 g/L NH4Cl, 0.1 mmol/L CaCl2, 2 mmol/L MgSO4, 4% glycerol, and 20 g/L casamino acids) supplemented with 50 μg/mL kanamycin.
For flow cytometry measurements, E. coli cultures were grown in a laboratory automation system that included an automated liquid handler (Hamilton, STAR), an automated plate sealer (4titude, a4S), an automated de-sealer (Brooks, XPeel), and two multi-mode plate readers (BioTek, Neo2SM).
Cultures were grown in clear polystyrene 96-well plates with 1.1 mL square wells (4titude, 4ti-0255). The culture volume per well was 0.5 mL. Before incubation, each 96-well growth plate was sealed by the automated plate sealer with a gas permeable membrane (4titude, 4ti-0598). Growth plates were incubated in one of the multi-mode plate readers at 37°C with a 1°C gradient applied from the bottom to the top of the incubation chamber to minimize condensation on the inside of the membrane. The plate readers were set for double-orbital shaking at 807 cycles per minute. Optical density at 600 nm (OD600) was measured every 5 minutes during incubation, with continuous shaking applied between measurements (optical density at 700 nm and YFP fluorescence were also measured every 5 minutes). After incubation, the automated de-sealer was used to remove the gas-permeable membrane from each 96-well plate to enable automated passaging of cultures and sample preparation for flow cytometry measurements.
For each measurement, starter cultures were prepared from glycerol freezer stock in 5 mL of rich M9 media in a 14 mL snap-cap culture tubes. Starter cultures were incubated at 37°C with orbital shaking at 300 rpm for between 4 h and 24 h prior to loading the automation system. The automation system then prepared 96-well growth plates, sealed and de-sealed the growth plates, incubated the growth plates, and prepared flow cytometry sample plates. The automated culture protocol consisted of the following steps: […]

Q: For B1, which “geo_mean: geometric mean of the YFP signal measured by cytometry” value (“geo_mean: geometric mean” for short) is on record?
A: 26059.303161112988 and 23664.3303473106

Same assay, conditions: IPTG 2.0 μmol/L, clone A

Q: Which “geo_mean: geometric mean” value does the source give for B1 here?
A: 26140.44981266789

Same assay, conditions: IPTG 4.0 μmol/L, clone A

Q: With B1 as the molecule, how does the “geo_mean: geometric mean” value read?
A: 26093.69376618197

Same assay, conditions: IPTG 8.0 μmol/L, clone A

Q: With B1 as the molecule, how does the “geo_mean: geometric mean” value read?
A: 26130.45714766927

Same assay, conditions: IPTG as ligand, Hill fit of cytometry data, posterior mean; read-out: log_ec50: the base-10 logarithm of EC50 (converted)

Q: B2 was tested. Which EC50 did it give?
A: 1520 nM

Same assay, conditions: IPTG dose-response, Hill fit of cytometry data

Q: B2 was tested. Which “n: the Hill coefficient” value did it give?
A: 1.53

Q: How did the “n: the Hill coefficient” value turn out when B3 was run?
A: 1.631

Q: For B4, which “n: the Hill coefficient” value is on record?
A: 1.459

Q: B5 was tested. Which “n: the Hill coefficient” value did it give?
A: 2.088

Q: For B6, which “n: the Hill coefficient” value is on record?
A: 1.459

Q: B7 was tested. Which “n: the Hill coefficient” value did it give?
A: 1.594

Q: B8 was tested. Which “n: the Hill coefficient” value did it give?
A: 1.594

Q: With B9 as the molecule, how does the “n: the Hill coefficient” value read?
A: 0.7133

Q: How did the “n: the Hill coefficient” value turn out when B10 was run?
A: 1.488

Same assay, conditions: basal output, Hill fit of cytometry data, posterior mean; value is log10

Q: For B2, which “log_g0: the base-10 logarithm of G0 (in MEF)” value (“log_g0: the base-10 logarithm” below) is on record?
A: 3.264 MEF

Q: For B3, which “log_g0: the base-10 logarithm” value is on record?
A: 4.54 MEF

Q: How did the “log_g0: the base-10 logarithm” value turn out when B5 was run?
A: 4.551 MEF

Q: With B9 as the molecule, how does the “log_g0: the base-10 logarithm” value read?
A: 4.508 MEF

Q: B10 was tested. Which “log_g0: the base-10 logarithm” value did it give?
A: 4.293 MEF

Same assay, conditions: saturating output, Hill fit of cytometry data, posterior mean; value is log10

Q: Which “log_ginf: the base-10 logarithm of G∞ (in MEF)” value (shortened to “log_ginf: the base-10 logarithm”) does the source give for B2 here?
A: 4.457 MEF

Q: B3 was tested. Which “log_ginf: the base-10 logarithm” value did it give?
A: 1.925 MEF

Q: For B11, which “log_ginf: the base-10 logarithm” value is on record?
A: 4.489 MEF

Q: How did the “log_ginf: the base-10 logarithm” value turn out when B5 was run?
A: 1.924 MEF

Q: B12 was tested. Which “log_ginf: the base-10 logarithm” value did it give?
A: 4.407 MEF

Q: B6 was tested. Which “log_ginf: the base-10 logarithm” value did it give?
A: 4.268 MEF

Q: How did the “log_ginf: the base-10 logarithm” value turn out when B13 was run?
A: 4.407 MEF

Q: Which “log_ginf: the base-10 logarithm” value does the source give for B14 here?
A: 4.268 MEF

Q: Which “log_ginf: the base-10 logarithm” value does the source give for B15 here?
A: 4.489 MEF

Q: How did the “log_ginf: the base-10 logarithm” value turn out when B9 was run?
A: 3.573 MEF

Q: With B10 as the molecule, how does the “log_ginf: the base-10 logarithm” value read?
A: 3.274 MEF
